# From US20210371506A1 (JIANGSU HENGRUI MEDICINE, published 2021)
# B1: HAB-5101 (antibody, human IgG1, kappa, V domains shown)
# VH: QVTLKESGPALVKPTQTLTLTCTFSGFSLSTSGMGVSWIRQPPGKALEWLAHIYWDDVSLYNPSLKSRLTISKDTSKNQVVLTMTNMDPVDTATYYCARRRIITVVDAMDYWGQGTTVTVSS
# VL: DVVMTQTPLSLPVTPGEPASISCRSSQSIVHSNGNTYLEWYLQKPGQSPKLLIYKVSNRFSGVPDRFSGSGSGTDFTLKISRVEAEDVGVYYCSQGSRVPPTFGGGTKVEIKR
# B2: HAB-9001 (antibody, human IgG1, kappa, V domains shown)
# VH: QVTLKESGPALVKPTQTLTLTCTFSGFSLSTFGMGVGWIRQPPGKALEWLAHIWWDDNKYYNPALKSRLTISKDTSKNQVVLTMTNMDPVDTATYYCARRGFHLGSRGDYFDHWGQGTTVTVSS
# VL: DVVMTQTPLSLPVTPGEPASISCRSSQSIVHSNGNTYLEWYLQKPGQSPQLLIYKVSNRFSGVPDRFSGSGSGTDFTLKISRVEAEDVGVYYCFQGSRVPLTFGQGTKLEIKR
# B3: HAB-2401 (antibody, human IgG1, kappa, V domains shown)
# VH: EVQLVQSGAEVKKPGASVKVSCKVSGYTLTNTYMHWVRQAPGKGLEWMGRIDPTNGNTKYAPKFKDRVTMTADTSTDTAYMELSSLRSEDTAVYYCARRVYYYDSTYNYWGKGTTVTVSS
# VL: DIQMTQSPSSLSASVGDRVTITCKSSQSLLNSGNQKNYLTWYQQKPGKVPKLLIYWASTRESGVPSRFSGSGSGTDFTLTISSLQPEDVATYYCQNDYNYPLTFGGGTKVEIKR
# Tests used:
# [1] = biological target: T1, Aβ1-42 monomer (human); assay: SPR, Biacore T200; IgG captured on Protein A chip, Aβ1-42 monomer flowed over
# T1 construct: Synthetic peptide: Sigma A9810 dissolved in DMSO for Biacore; GenScript RP10017 in NaOH/PBS for the ThT assay; also called human Aβ1-42
# Procedure: (§1) The affinity of an antibody to Aβ1-42 monomer was detected by capturing antibody on the chip. IgG was affinity-captured onto Protein A biosensing chip, and then the antigen […] monomer was allowed to flow through the surface of the chip. The reaction signals were detected in real time with Biacore T200 instrument to generate a binding and dissociation curve. At the end of each experimental cycle, after the dissociation was completed, the biosensor chip was washed and regenerated with 10 mM Glycine-HCl (pH1.5).
# [2] = biological target: T2, Aβ1-42 fibrils (human); assay: SPR, Biacore T200; Aβ1-42 fibrils amine-coupled to CM5 chip, antibody flowed over
# T2 construct: Synthetic Aβ1-42 polypeptide (GL Biochem) made into fibrils in vitro (DMSO, diluted in water, 37 °C for 10 days); In the phagocytosis assays the fibrils were fluorescence (FITC) labeled; also called Aβ fibrils; Abeta fibrils
# Procedure: (§2) The affinity of an antibody to Aβ1-42 fibrils was detected by the method of amino coupling. Aβ1-42 fibrils was coupled to CM5 biosensing chip (200 RU), and then the antibody molecules were allowed to flow through the surface of the chip. The reaction signals were detected in real time with Biacore T200 instrument to generate a binding and dissociation curve. At the end of each experimental cycle, after the dissociation was completed, the biosensor chip was washed and regenerated with 10 mM Glycine-HCl (pH 1.5). The positive antibody, Aducanumab, was prepared according to the sequence information about Aducanumab released by WHO (see WHO Drug Information, Vol. 28, No. 3, 2014), and the preparation method was described in Example 4 of the present disclosure.
# [3] = biological target: T1, Aβ1-42 monomer; assay: cell-based or functional assay
# [4] = biological target: T1, Aβ1-42 monomer; assay: SPR, Biacore T200; IgG on Protein A chip, Aβ1-42 monomer as analyte; reference Aducanumab
# Procedure: as §1
# [5] = biological target: T2, Aβ1-42 fibrils; assay: SPR, Biacore T200; Aβ1-42 fibrils on CM5 chip; reference Aducanumab
# Procedure: as §2
# T2 sequence (peptide, as listed by the source): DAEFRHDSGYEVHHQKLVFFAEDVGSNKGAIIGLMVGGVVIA
# T1 sequence (peptide, as listed by the source): as above
Binder,Kd [1] [nM],Kd [2] [nM],IC50 (read off the curve) [3] [nM],affinity relative to Aducanumab [4],affinity relative to Aducanumab [5]
B1,333,1.22,~800,,
B2,27.9,0.213,,2 orders of magnitude,2 orders of magnitude
B3,229,11.7,,,
